The record followed here is PMC6879724, “Insect Hsp90 Chaperone Assists Bacillus thuringiensis Cry Toxicity by Enhancing Protoxin Binding to the Receptor and by Protecting Protoxin from Gut Protease Degradation” (mBio, 2019).

The target of assay [1] is T1, Cry1Ab protoxin (Bacillus thuringiensis, UniProt P0A370 1-1155).
T1 construct: also called 130-kDa protoxin
The experiment in a line: ELISA; plates coated with 0.5 ug protoxin or activated toxin in PBS; PxHsp90 in Hsp90 buffer (1 mM ATP, 1 mM Mg in PBS) added for 1 h at 37 C; detected with anti-polyhistidine-peroxidase antibody; one sample without ATP (binding significantly reduced). The conditions noted are these: both partners purified.

Assay [2] deals with Cry1Ac protoxin (Bacillus thuringiensis (strain HD73), UniProt P05068 1-1178). The assay is described as above. The conditions noted are these: both partners purified.

B1: Plutella xylostella Hsp90 (natural protein)
chain: not shown
notes: Hsp90 of Plutella xylostella, gene Pxhsp90 (GenBank AB214972.1), amplified from genomic DNA with primers from the start codon (NdeI) to the stop codon (BamHI); Cloned NdeI-BamHI into pET28b with its own stop codon, so the His tag is probably N-terminal (surmised); detected in the ELISA with an anti-polyhistidine antibody; also called PxHsp90; source: E. coli BL21 (pET28b), purified (Ni-NTA from …)
With B1, the binding result in assay [1] and in assay [2] was “binds” throughout.
